Patent US20050079613A1 (OREGON HEALTH AND SCIENCE UNIVERSITY, published 2005)

Molecular target: the molecule itself
Test: anti-Flag immunoprecipitation from metabolically labeled HeLa cells, SDS-PAGE and anti-Flag western blot
Experimental: HeLa cells were grown to 80% confluency in 100 mm tissue culture dishes and transfected as above. At 24 hours post-infection, cells were incubated in serum-free and methionine-free medium for 30 minutes, and metabolically labeled with ³⁵S-cysteine/³⁵S-methionine (300 μCi/plate, Amersham) for 2 hr. After labeling, cells were washed twice with PBS and lysed immediately in PBS containing 1% Digitonin and protease inhibitors (Roche, Indianapolis, Ind.). The cell lysate was precleared with protein A/G agarose beads overnight and incubated with 3 μg of antibody for one hour, followed by one hour with protein A/G beads. Immunoprecipated proteins were washed five times with 0.25% Digitonin in PBS. All samples were boiled in Laemmli buffer and analyzed by SDS-PAGE gel electrophoresis. Gels were fixed, dried and exposed to Kodak BioMax MR film. Western blotting was accomplished using the WesternBreeze Chemiluminescent Detection System (Invitrogen), following semi-dry transfer to PVDF membranes (Millipore, Bedford, Mass.).

B1: MARCH-I (enzyme, not shown: small tags and cut ends)
chain: MTSSHVCCNFLNMWKKSKISTMYYLNQDAKLSNLFLQASSPTTGTAPRSQSRLSVCPSTQDICRICHCEGDEESPLITPCRCTGTLRFVHQSCLHQWIKSSDTRCCELCKYDFIMETKLKPLRKWEKLQMTTSERRKIFCSVTFHVIAITCVVWSLYVLIDRTAEEIKQGNDNGVLEWPFWTKLVVVAIGFTGGLVFMYVQCKVYVQLWRRLKAYNRVIFVQNCPDTAKKLEKNFSCNVNTDIKDAVVVPVPQTGANSLPSAEGGPPEVVSV
notes: Whole open reading frame expressed by transfection in HeLa cells; Flag-tagged in the immunoprecipitation; also called MARCHI-Flag; FLJ20668
B1: binds.
